“Also recorded” adds a separate entry of the source.
Columns and labels:
human Kv1.3 [1] = biological target: T1, human Kv1.3 (Homo sapiens, UniProt P22001); format: cell-based
human Kv1.1 = biological target: T2, human Kv1.1 (Homo sapiens, UniProt Q09470); format: cell-based; settings: read-out: hKv1.1: IC50
T2 construct: expressed in transfected cells; host or cells: HEK293

human Kv1.3 [2] = biological target: T1, human Kv1.3; test: Immunohistochemistry of peptibody binding to HEK 293 cells overexpressing human Kv1.3; parameters: expressed in transfected cells; settings: 5 μg/ml peptibody
Procedure: Immunohistochemistry analysis of Fc-L10-ShK[1-35] binding to HEK 293 cells overexpressing human Kv1.3. HEK 293 cells overexpressing human Kv1.3 (HEK Kv1.3) were obtained from BioFocus plc (Cambridge, UK) and maintained per manufacturer's recommendation. The parental HEK 293 cell line was used as a control. Cells were plated on Poly-D-Lysine 24 well plates (#35-4414; Becton-Dickinson, Bedford, Mass.) and allowed to grow to approximately 70% confluence. HEK KV1.3 were plated at 0.5×10e5 cells/well in 1 ml/well of medium. HEK 293 cells were plated at a density of 1.5×10e5 cells/well in 1 ml/well of medium. Before staining, cells were fixed with formalin (Sigma HT50-1-1 Formalin solution, diluted 1:1 with PBS/0.5% BSA before use) by removing cell growth medium, adding 0.2 ml/well formalin solution and incubating at room temperature for ten minutes. Cells were stained by incubating with 0.2 ml/well of 5 μg/ml Fc-L10-ShK[1-35] in PBS/BSA for 30′ at room temperature. Fc-L10-ShK[1-35] was aspirated and then the cells were washed one time with PBS/0.5% BSA. Detection antibody (Goat F(ab)2 anti-human IgG-phycoerythrin; Southern Biotech Associates, Birmingham, Ala.) was added to the wells at 5 μg/ml in PBS/0.5% BSA and incubated for 30′ at room temperature. Wash cells once with PBS/0.5% BSA and examine using confocal microscopy (LSM 510 Meta Confocal Microscope; Carl Zeiss AG, Germany). […]

CD40L on CD4+ T cells = format: cell-based, human
human Kv1.3 [3] = biological target: T1, human Kv1.3; test: Whole cell immunoassay (ELISA) of binding to fixed HEK 293 cells overexpressing Kv1.3; parameters: expressed in transfected cells
Procedure: Our peptibody reagent can be a useful and convenient tool for monitoring Kv1.3 channel expression in patients and have utility in diagnostic applications. The procedure shown in FIG. 34A and FIG. 34B follows.
FIG. 34A. A whole cell immunoassay was performed to show binding of intact Fc-L10-ShK[1-35] to Kv1.3 transfected HEK 293 cells (BioFocus plc, Cambridge, UK). Parent HEK 293 cells or HEK Kv1.3 cells were plated at 3×10e4 cells/well in poly-D-Lysine coated ninety-six well plates (#35-4461; Becton-Dickinson, Bedford, Mass.). Cells were fixed with formalin (Sigma HT50-1-1 Formalin solution, diluted 1:1 with PBS/0.5% BSA before use) by removing cell growth medium, adding 0.2 ml/well formalin solution and incubating at room temperature for 25 minutes and then washing one time with 100 μl/well of PBS/0.5% BSA. Wells were blocked by addition of 0.3 ml/well of BSA blocker (50-61-00; KPL 10% BSA Diluent/Blocking Solution, diluted 1:1 with PBS; KPL, Gaithersburg, Md.) followed by incubation at room temperature, with shaking, for 3 hr. Plates were washed 2 times with 1×KP Wash Buffer (50-63-00; KPL). […] Absorbance was read at 450 nm on a Molecular Devices SpectroMax 340 (Sunnyvale, Calif.).
FIG. 34B. […] Absorbances were read at 405 nm after stopping reactions by addition of 0.1 ml/well of 1% SDS.

IL-2R on CD4+ T cells = format: cell-based, human
[4] = test system: T cell proliferation, human PBMCs; test: T cell proliferation (3H-thymidine incorporation) in anti-CD3/anti-CD28 stimulated human PBMCs; format: cell-based; settings: antibodies to CD3 and CD28
From the text: Inhibition of T cell proliferation following anti-CD3 and anti-CD28 antibody stimulation of PBMCs. PBMC's were previously isolated from normal human donor Leukophoresis packs, purified by density gradient centrifugation (Ficoll Hypaque), cryopreserved in CPZ Cryopreservation Medium Complete (INCELL, MCPZF-100 plus 10% DMSO final). PBMC's were thawed (95% viability), washed, and seeded at 2×10^5 cells per well in culture medium (RPMI medium 1640; GIBCO) supplemented with 10% fetal calf serum, 100 U/ml penicillin, […] streptomycin, 2 mM L-glutamine, 100 μM non-essential amino acids, and 20 μM 2-ME) in 96-well flat-bottom tissue culture plates. Cells were pre-incubated with either anti-human CD32 (FcyRII) blocking antibody (per manufacturers instructions EASY SEP Human Biotin Selection Kit #18553, StemCell Technologies Vancouver, BC) or Fc-L10-ShK (100 nM-0.001 nM final) for 45 min. Fc-L10-ShK (100 nM-0.001 nM final) was then added to the cells containing anti-human CD32 blocking antibody while medium was added to the cells containing Fc-L10-ShK. Both sets were incubated for an additional 45 min before stimulating for 48 hr with aCD3/aCD28 (0.2 ng/ml and 100 ng/ml, respectively). Final assay volume was 200 ul. […] Cells were then harvested onto glass fiber filters and radioactivity was measured in a B-scintillation counter.

T1 sequence (P22001 whole entry): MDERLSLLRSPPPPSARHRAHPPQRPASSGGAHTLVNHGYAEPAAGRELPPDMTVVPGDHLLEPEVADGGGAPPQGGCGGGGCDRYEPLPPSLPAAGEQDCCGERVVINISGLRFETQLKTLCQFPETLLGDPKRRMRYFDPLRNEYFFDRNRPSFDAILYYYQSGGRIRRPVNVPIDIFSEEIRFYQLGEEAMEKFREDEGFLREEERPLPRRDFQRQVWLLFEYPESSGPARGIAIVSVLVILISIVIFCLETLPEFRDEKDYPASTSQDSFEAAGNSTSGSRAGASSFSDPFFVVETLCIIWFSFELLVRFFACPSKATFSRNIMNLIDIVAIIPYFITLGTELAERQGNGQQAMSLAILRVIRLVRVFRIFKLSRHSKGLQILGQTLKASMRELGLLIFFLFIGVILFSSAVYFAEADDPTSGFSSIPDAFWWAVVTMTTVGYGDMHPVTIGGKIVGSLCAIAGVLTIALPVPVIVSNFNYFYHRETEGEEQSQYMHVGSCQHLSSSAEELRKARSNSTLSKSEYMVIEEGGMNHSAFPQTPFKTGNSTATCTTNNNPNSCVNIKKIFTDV
T2 sequence (Q09470 whole entry): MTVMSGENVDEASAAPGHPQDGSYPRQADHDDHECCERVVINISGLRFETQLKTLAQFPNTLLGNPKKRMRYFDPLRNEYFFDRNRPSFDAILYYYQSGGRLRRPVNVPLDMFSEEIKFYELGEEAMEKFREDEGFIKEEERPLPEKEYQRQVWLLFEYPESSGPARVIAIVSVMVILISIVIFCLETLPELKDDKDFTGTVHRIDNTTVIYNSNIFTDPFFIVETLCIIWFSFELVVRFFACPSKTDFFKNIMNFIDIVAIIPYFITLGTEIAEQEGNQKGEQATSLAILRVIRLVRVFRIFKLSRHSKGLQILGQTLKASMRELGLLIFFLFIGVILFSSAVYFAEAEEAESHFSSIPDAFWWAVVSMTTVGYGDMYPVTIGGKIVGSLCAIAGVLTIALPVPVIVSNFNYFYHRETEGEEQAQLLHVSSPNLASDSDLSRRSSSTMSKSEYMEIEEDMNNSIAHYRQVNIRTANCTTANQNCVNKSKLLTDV

Row | Substance | fold less potent than the synthetic OSK1 toxin peptide (human Kv1.3 [1]) | IC50 (human Kv1.1) [nM] | staining of Kv1.3-transfected HEK 293 cells (in words) (human Kv1.3 [2]) | block of thapsigargin-induced upregulation of CD40L on T cells (in words) (CD40L on CD4+ T cells) | binding to fixed HEK 293 cells overexpressing Kv1.3 (in words) (human Kv1.3 [3]) | block of thapsigargin-induced upregulation of the IL-2R on T cells (in words) (IL-2R on CD4+ T cells) | inhibition of T cell proliferation (in words) [4]
1 | Fc-L10-OSK1[E16K,K20D] | approximately 6 fold | > 100 |  |  |  |  | 
2 | Fc-L10-ShK[1-35]: Fc region of human IgG1 fused in-frame to a 10 amino acid linker and the Kv1.3 inhibitor peptide ShK[1-35]; peptibody |  |  | stains HEK 293 cells stably transfected with human Kv1.3 | suppressed | dose-dependent increase in response; also recorded: high affinity binding to its target | suppressed | inhibits T cell proliferation; also recorded: blocked T cell proliferation; also recorded: potently inhibits proliferation of T cells in a dose-dependent manner

Source: patent US7910102B2 (priority 2006, dated 2011)
